# Test results from publication PMC9425028.
# B1: wild-type recombinant mouse MASP-3 fused with PA-tag (WT rmMASP-3-PA) [mouse] / mouse ficolin-A [mouse (endogenous in serum of C57BL/6J mice)] (parent)
# chain 1: HTVELNEMFGQIQSPGYPDSYPSDSEVTWNITVPEGFRIKLYFMHFNLESSYLCEYDYVKVETEDQVLATFCGRETTDTEQTPGQEVVLSPGTFMSVTFRSDFSNEERFTGFDAHYMAVDVDECKEREDEELSCDHYCHNYIGGYYCSCRFGYILHTDNRTCRVECSGNLFTQRTGTITSPDYPNPYPKSSECSYTIDLEEGFMVSLQFEDIFDIEDHPEVPCPYDYIKIKAGSKVWGPFCGEKSPEPISTQTHSVQILFRSDNSGENRGWRLSYRAAGNECPKLQPPVYGKIEPSQAVYSFKDQVLVSCDTGYKVLKDNEVMDTFQIECLKDGAWSNKIPTCKIVDCGAPAGLKHGLVTFSTRNNLTTYKSEIRYSCQQPYYKMLHNTTGVYTCSAHGTWTNEVLKRSLPTCLPVCGQPSRALPNLVKRIIGGRNAELGLFPWQALIVVEDTSRVPNDKWFGSGALLSESWILTAAHVLRSQRRDNTVIPVSKEHVTVYLGLHDVRDKSGAVNSSAARVILHPDFNIQNYNHDIALVQLQKPVPLGAHVMPICLPRPEPEGPAPHMLGLVAGWGISNPNVTVDEIILSGTRTLSDVLQYVKLPVVSHAECKASYESRSGNYSVTENMFCAGYYEGGKDTCLGDSGGAFVIFDEMSQHWVAQGLVSWGGPEECGSKQVYGVYTKVSNYVDWLWEEMNSPRAVRDLQVER
# chain 2: SQALGQERGACPDVKVVGLGAQDKVVVIQSCPGFPGPPGPKGEPGSPAGRGERGFQGSPGKMGPAGSKGEPGTMGPPGVKGEKGDTGAAPSLGEKELGDTLCQRGPRSCKDLLTRGIFLTGWYTIHLPDCRPLTVLCDMDVDGGGWTVFQRRVDGSIDFFRDWDSYKRGFGNLGTEFWLGNDYLHLLTANGNQELRVDLQDFQGKGSYAKYSSFQVSEEQEKYKLTLGQFLEGTAGDSLTKHNNMSFTTHDQDNDANSMNCAALFHGAWWYHNCHQSNLNGRYLSGSHESYADGINWGTGQGHHYSYKVAEMKIRAS
# B2: wild-type recombinant mouse MASP-3 fused with PA-tag (WT rmMASP-3-PA) [mouse] / mouse collectin kidney 1 (CL-K1) [mouse (endogenous in serum of C57BL/6J mice)] (parent)
# chain 1: B1 chain 1
# chain 2: QQTTEDACSVQILVPGLKGDAGEKGDKGAPGRPGRVGPTGEKGDMGDKGQKGTVGRHGKIGPIGAKGEKGDSGDIGPPGPSGEPGIPCECSQLRKAIGEMDNQVTQLTTELKFIKNAVAGLRETESKIYLLVKEEKRYADAQLSCQARGGTLSMPKDEAANGLMASYLAQAGLARVFIGINDLEKEGAFVYSDRSPMQTFNKWRSGEPNNAYDEEDCVEMVASGGWNDVACHITMYFMCEFDKENL
# Variants of: B1
# Test: immunoprecipitation with anti-PA tag antibody beads from mouse serum, Western blot band intensity
# Conditions: with mouse ficolin-A [mouse (endogenous in serum of C57BL/6J mice)]; TBS containing 7 mM MgCl2 and 5 mM CaCl2 (TBS/Mg/Ca); parent: 1; read off a plot
row,ratio to parent,Variant
1,0.06,chain 1 Y225A
2,0.04,chain 1 D102A
3,0.09,chain 1 E49A
4,0.04,chain 1 H218A

# Variants of: B2
# Test: as above
# Conditions: with mouse collectin kidney 1 (CL-K1) [mouse (endogenous in serum of C57BL/6J mice)]; TBS containing 7 mM MgCl2 and 5 mM CaCl2 (TBS/Mg/Ca); parent: 1; read off a plot
row,ratio to parent,Variant
1,0.02,chain 1 E49A
2,0.03,chain 1 D102A
3,0.07,chain 1 Y225A
4,0.04,chain 1 H218A
